Test results taken from patent publication US20080188404.

Tests used:
[1] = target: hybrid protein DAF-CR1B
[2] = target: hybrid protein DAF-MCP
hybrid protein DAF-MCP, sequence (chain, as listed by the source): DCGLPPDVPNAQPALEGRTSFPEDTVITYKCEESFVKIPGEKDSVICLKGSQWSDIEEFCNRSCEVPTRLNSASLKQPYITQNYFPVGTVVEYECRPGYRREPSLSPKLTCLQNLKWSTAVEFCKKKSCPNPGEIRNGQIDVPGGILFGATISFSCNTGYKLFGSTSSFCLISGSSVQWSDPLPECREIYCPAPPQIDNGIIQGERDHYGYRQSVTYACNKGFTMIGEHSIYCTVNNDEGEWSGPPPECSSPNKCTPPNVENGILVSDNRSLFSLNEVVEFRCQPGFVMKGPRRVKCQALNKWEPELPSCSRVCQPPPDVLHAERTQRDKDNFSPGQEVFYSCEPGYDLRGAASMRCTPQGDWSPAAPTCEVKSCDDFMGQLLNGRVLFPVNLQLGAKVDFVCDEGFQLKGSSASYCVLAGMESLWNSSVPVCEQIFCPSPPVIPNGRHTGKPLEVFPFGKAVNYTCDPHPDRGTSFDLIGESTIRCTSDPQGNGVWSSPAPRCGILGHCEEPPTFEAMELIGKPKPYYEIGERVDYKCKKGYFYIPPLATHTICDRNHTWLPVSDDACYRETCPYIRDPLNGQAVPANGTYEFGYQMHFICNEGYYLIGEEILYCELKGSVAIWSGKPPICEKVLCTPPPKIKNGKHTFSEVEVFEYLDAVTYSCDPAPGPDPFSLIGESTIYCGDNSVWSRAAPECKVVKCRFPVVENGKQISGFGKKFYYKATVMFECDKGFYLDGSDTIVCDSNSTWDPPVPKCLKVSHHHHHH

hybrid protein DAF-CR1B, sequence (chain, as listed by the source): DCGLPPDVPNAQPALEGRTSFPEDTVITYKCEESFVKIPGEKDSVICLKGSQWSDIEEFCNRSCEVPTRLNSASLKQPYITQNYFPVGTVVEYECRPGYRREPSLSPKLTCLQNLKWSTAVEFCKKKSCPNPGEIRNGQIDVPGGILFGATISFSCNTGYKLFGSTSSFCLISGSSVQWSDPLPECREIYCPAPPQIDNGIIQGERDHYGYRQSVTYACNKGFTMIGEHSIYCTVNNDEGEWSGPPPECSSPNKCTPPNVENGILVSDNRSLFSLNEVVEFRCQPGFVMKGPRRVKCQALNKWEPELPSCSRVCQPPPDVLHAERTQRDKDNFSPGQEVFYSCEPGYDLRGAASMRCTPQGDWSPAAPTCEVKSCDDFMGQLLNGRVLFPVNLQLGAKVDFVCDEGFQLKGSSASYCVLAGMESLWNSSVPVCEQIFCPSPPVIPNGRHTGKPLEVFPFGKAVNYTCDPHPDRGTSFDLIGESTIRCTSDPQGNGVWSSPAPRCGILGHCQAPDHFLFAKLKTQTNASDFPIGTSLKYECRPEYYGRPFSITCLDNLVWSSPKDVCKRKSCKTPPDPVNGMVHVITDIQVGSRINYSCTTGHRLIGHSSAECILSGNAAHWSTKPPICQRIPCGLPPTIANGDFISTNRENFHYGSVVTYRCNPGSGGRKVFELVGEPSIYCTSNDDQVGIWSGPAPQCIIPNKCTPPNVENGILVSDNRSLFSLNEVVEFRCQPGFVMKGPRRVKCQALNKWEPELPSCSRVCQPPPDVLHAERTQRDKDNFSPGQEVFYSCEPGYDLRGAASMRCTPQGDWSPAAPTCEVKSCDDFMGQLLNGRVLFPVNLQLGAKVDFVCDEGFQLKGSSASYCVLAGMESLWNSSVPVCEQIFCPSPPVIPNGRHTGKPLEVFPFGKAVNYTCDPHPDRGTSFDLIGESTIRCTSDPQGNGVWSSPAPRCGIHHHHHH

B1: human factor I (protein)
chain: KVTYTSQEDLVEKKCLAKKYTHLSCDKVFCQPWQRCIEGTCVCKLPYQCPKNGTAVCATNRRSFPTYCQQKSLECLHPGTKFLNNGTCTAEGKFSVSLKHGNTDSEGIVEVKLVDQDKTMFICKSSWSMREANVACLDLGFQQGADTQRRFKLSDLSINSTECLHVHCRGLETSLAECTFTKRRTMGYQDFADVVCYTQKADSPMDDFFQCVNGKYISQMKACDGINDCGDQSDELCCKACQGKGFHCKSGVCIPSQYQCNGEVDCITGEDEVGCAGFASVTQEETEILTADMDAERRRIKSLLPKLSCGVKNRMHIRRKRIVGGKRAQLGDLPWQVAIKDASGITCGGIYIGGCWILTAAHCLRASKTHRYQIWTTVVDWIHPDLKRIVIEYVDRIIFHENYNAGTYQNDIALIEMKKDGNKKDCELPRSIPACVPWSPYLFQPNDTCIVSGWGREKDNERVFSLQWGEVKLISNCSKFYGNRFYEKEMECAGTYDGSIDACKGDSGGPLVCMDANNVTYVWGVVSWGENCGKPEFPGVYTKVANYFDWISYHVGRPFISQYNV
Question: What does the source list for B1?
Answer: cofactor assay: factor I cleavage of C3b, Western blot [1]: DAF-CR1B acts as cofactor for factor I as shown by the appearance of a band at 29 kDa; cofactor assay: factor I cleavage of C3b, SDS-PAGE and Western blot with anti-human C3 polyclonal antibody [2]: Supernatants with factor I and either DAF-MCP or DAF-CR1BB both exhibited 43 and 40 kDa bands corresponding to formation of iC3b and C3c, respectively
